Experimental data taken from publication doi:10.1101/308353.

Biological target: GFP-βRat CaMKII holoenzyme (rat) (UniProt P08413)
Experiment: single molecule TIRF microscopy

Chain of UniProt P08413 (P08413 whole entry): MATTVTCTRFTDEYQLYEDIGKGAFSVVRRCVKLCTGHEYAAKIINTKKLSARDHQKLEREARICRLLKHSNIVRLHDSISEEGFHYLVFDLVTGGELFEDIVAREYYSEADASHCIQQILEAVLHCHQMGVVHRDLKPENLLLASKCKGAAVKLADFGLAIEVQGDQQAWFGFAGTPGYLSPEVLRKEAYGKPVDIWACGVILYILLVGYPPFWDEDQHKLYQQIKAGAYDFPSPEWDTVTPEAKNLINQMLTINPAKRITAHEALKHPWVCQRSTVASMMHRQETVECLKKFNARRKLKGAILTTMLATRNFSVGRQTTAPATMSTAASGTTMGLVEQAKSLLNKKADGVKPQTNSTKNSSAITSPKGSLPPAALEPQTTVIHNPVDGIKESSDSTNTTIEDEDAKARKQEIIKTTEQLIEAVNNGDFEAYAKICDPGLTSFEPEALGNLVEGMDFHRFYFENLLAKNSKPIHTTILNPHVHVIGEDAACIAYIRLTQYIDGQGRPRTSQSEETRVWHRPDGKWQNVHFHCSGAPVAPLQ

For “Cy3 conjugated G-actin (from UniProt P68135 1-377) (natural protein)”, the Pearson's correlation of co-localization was 0.33.
